Measured values as given in PMC8967717 (Nature, 2022).
Several values for one entry are separate records, joined by “and”; a condition that tells them apart may be missing. Identical values can stand only once.

B1: XGv282 monoclonal antibody (antibody, V domains shown)
VH: QVQLVQSGAEVKKPGSSVKVSCKASGDTFSSYTFSWVRQAPGQGLEWMGRSIPIVGKAIYAQEFQGRVTISADRSTTTVYMELSSLRSDDTAVYYCARDQSGFDFFYYDHWGQGTLVAVSS
VL: QSVLTQPPSASGTPGQRVTISCSGSGSNIGSNTINWYQQLPGTAPKVLIYRNNERPSGVPDRFSGSKSGTSASLTISGLQSEDEAYYHCAAWDDSLNGPVFGGGTKLTVL
notes: IgG1; copies: 2 + 2
B2: XGv282 (antibody, V domains shown)
VH: B1 VH
VL: B1 VL
B3: XGv282 Fab fragment (Fab, V domains shown)
VH: B1 VH
VL: B1 VL
B4: XGv265 Fab fragment (Fab, V domains shown)
VH: QITLKESGPTLVKPTQTLTLTCNFSGFSLNTYGVGVGWIRQPPGKALEWLALIYWDGDERYGPFFKNKVTIAKDTSKNQVVLTMTNMDPVDTATYYCARHLIPTIFDYWGQGTLVTVSS
VL: QSALTQPASVSGSPGQSITISCTGTSSDVGGSNYVSWYQHHPDRAPKLLIYEVTNRPSGVSNRFSGSKSANTASLTISGLQAEDEADYYCSSYTTTSTHILFGGGTKLTV
B5: XGv265 (antibody, V domains shown)
VH: B4 VH
VL: B4 VL
B6: XGv347 Fab fragment (Fab, V domains shown)
VH: QMQLVQSGPEVKKPGTSVKVSCKASGFTFTDVSSLQWVRQARGQRLEWIGWTVVGTGNTNYAPRFQERVTITTDKSTSTAYMELSSLRSEDTAVYYCAAPFCSETSCSDGFDLWGQGTKVTVS
VL: EIVLTQSPGTLSLSPGDRATLSCRASQSVRISYLAWYQQKPGQAPRLLISGSSSRATGIPDRFSASGSGTDFTLTISRLEPEDFAVYYCQQYANSPWTFGQGTKVEV
B7: XGv289 Fab fragment (Fab, V domains shown)
VH: QVQLVQSGAEVKKPGASLKVSCRASGYTFTSHFIHWVRQAPGQGLEWMGIINPSGGASYAQNFRDRVTMTTDPSTSTVYMELGSLRSEDTAVYYCARAEGSSWLGWFDPWGQGTLVTVSS
VL: QSVLTQPPSASGTPGQRVTIPCSGSSSNIGNNYVYWYQQLPGTAPKLLVYGNNQRPSGVPDRFSVSKSGTSASLAISGLRSEDEADYYCAAWDDGLSGSGWVFGGGTKLTVL
B8: XGv289 (antibody, V domains shown)
VH: B7 VH
VL: B7 VL
B9: XGv347 monoclonal antibody (antibody, V domains shown)
VH: QMQLVQSGPEVKKPGTSVKVSCKASGFTFTDVSSLQWVRQARGQRLEWIGWTVVGTGNTNYAPRFQERVTITTDKSTSTAYMELSSLRSEDTAVYYCAAPFCSETSCSDGFDLWGQGTKVTVSS
VL: EIVLTQSPGTLSLSPGDRATLSCRASQSVRISYLAWYQQKPGQAPRLLISGSSSRATGIPDRFSASGSGTDFALTISRLEPEDFAVYYCQQYDNSPWTFGQGTKVEVK
notes: copies: 2 + 2
B10: XGv347 (antibody, V domains shown)
VH: B9 VH
VL: B9 VL

Experiments:
[1] = biological target: T1, SARS-CoV-2 Omicron RBD (ACROBiosystems, cat. no. SPD-C522e) (SARS-CoV-2, Omicron B.1.1.529 (BA.1), G339D | S371L | S373P | S375F | K417N | N440K | G446S | S477N | T478K | E484A | …); experiment: BLI; conditions: both partners purified
T1 construct: source: bought: ACROBiosystems

[2] = biological target: SARS-CoV-2 wild-type spike (S) protein (SARS-CoV-2, WT (MN908947), UniProt P0DTC2); experiment: cell-based or functional assay
[3] = biological target: prefusion-stabilized SARS-CoV-2 Omicron (B.1.1.529) S trimer (SARS-CoV-2, Omicron B.1.1.529 (BA.1), A67V | Δ69–70 | T95I | G142D | Δ143–145 | Δ211 | L212I | ins214EPE | G339D | …); experiment: cryo-EM structure; conditions: both partners purified

| Binder | authentic virus IC50(μg/ml), Wild-type [2] [µg/mL] | pseudovirus IC50(μg/ml), Wild-type [2] [µg/mL] | stoichiometry N [3] | other results |
| --- | --- | --- | --- | --- |
| B1 | – | – | – | fold reduction in binding affinity against WT S [1]: 5 fold |
| B2 | 0.00102 | 0.007 | – | – |
| B3 | – | – | 3 Fabs per S trimer | – |
| B4 | – | – | 2 Fabs per S trimer | – |
| B5 | 0.0122 | 0.0105 | – | – |
| B6 | – | – | 3 Fabs per S trimer and 2 Fabs per S trimer | – |
| B7 | – | – | 3 Fabs per S trimer | – |
| B8 | 0.0061 | 0.00928 | – | – |
| B9 | – | – | – | fold decrease in binding against WT S [1]: 40 fold |
| B10 | 0.0061 | 0.0685 | – | – |
